Test results as given in paper PMC2680971 (Journal of Molecular Biology, 2009).

Experiments:
[1] = molecular target: DC-SIGNR neck domain, 7.5 repeat form, His2 tag (human); experiment: SEC
[2] = molecular target: the molecule itself; experiment: SEC

stoichiometry N [1] | Molecule | stoichiometry N [2]
4 | DC-SIGNR neck domain, 7.5 repeat form, His2 tag (domain or fragment) | 
 | DC-SIGNR neck domain, 6.5 repeat polymorphic form, His2 tag (domain or fragment) KVPSSLSQEQSEQDAIYQNLTQLKAAVGELSEKSKLQEIYQELTQLKAAVGELPEKSKLQEIYQELTRLKAAVGELPEKSKLQEIYQELTRLKAAVGELPEKSKLQEIYQELTRLKAAVGELPEKSKLQEIYQELTELKAAVGELPEKSKLQEIYQELTQLKAAVE | 4
